The values below come from PMC3269792.

The target in experiment [1] is KCNQ1-KCNQ1 dimer (QQ) of the tandem EQQ construct with I145C in the proximal KCNQ1 subunit (human). Briefly: cross-linking.
For experiment [2], the target named is KCNQ1-KCNQ1 dimer (QQ) of the tandem EQQ construct with I145C in the distal KCNQ1 subunit (human). Nature of the experiment: cross-linking.

Take “KCNE1 K41C subunit of the tandem EQQ construct, cut off by HRV-3C protease (natural protein)”: the percent cross-linking in experiment [1] came to 90%; in experiment [2], 50%.
